Tests used:
[1] = target: GST fusion of mouse importin β1 (PTAC97) (mouse) (UniProt P70168); test: GST-importin β pull-down of IVT 35S-EDD, autoradiography
[2] = target: GSTchk2-N (GST fused to chk2 aa 1-225) (human) (UniProt O96017); test: pre-incubation of GSTchk2-N with the peptide, then pull-down of IVT 35S-EDD (competitor of EDD)
Sequence of GSTchk2-N (GST fused to chk2 aa 1-225) (human) (O96017 1-225): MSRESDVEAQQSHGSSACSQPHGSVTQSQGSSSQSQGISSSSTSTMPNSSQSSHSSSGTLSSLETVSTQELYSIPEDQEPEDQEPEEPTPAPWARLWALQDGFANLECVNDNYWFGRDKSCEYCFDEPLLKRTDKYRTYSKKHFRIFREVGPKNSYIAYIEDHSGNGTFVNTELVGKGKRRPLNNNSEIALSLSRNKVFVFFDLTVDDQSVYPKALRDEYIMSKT

Sequence of GST fusion of mouse importin β1 (PTAC97) (mouse) (P70168 whole entry, the tested form may be a part): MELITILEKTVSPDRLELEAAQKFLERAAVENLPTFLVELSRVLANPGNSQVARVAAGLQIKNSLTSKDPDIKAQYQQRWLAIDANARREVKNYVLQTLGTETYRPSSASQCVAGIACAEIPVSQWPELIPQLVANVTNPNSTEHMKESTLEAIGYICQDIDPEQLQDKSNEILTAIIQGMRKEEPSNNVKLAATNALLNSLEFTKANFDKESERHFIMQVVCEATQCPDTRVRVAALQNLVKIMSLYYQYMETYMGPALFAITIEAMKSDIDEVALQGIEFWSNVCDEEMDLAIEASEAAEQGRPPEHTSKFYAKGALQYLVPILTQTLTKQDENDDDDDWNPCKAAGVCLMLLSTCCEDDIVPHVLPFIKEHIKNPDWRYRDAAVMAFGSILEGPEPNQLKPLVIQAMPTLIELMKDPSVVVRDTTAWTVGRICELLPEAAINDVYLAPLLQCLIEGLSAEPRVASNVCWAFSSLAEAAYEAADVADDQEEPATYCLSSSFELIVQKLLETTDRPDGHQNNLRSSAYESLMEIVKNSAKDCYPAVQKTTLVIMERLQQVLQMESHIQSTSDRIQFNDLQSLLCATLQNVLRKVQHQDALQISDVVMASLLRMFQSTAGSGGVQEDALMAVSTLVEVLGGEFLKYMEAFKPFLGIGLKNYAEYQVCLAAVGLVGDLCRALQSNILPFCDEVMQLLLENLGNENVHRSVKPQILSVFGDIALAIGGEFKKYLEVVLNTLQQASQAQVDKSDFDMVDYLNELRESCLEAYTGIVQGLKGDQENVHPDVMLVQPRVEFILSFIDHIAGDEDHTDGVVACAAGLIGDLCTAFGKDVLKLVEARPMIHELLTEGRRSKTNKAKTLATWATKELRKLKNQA

percent of the available EDD protein pulled down [1] [%] | peptide concentration that abolished binding of EDD to chk2-N [2] [µM] | Substance
5 |  | EDD protein, full length (aa 1-2799) (from UniProt O95071 1-2799)
 | > 50 | FHA-binding phosphopeptide RWFDT(P)YLIRR

Source: patent US20060147922A1, “Novel diagnostic and therapeutic methods and reagents therefor” (priority 2002, published 2006)
